Measurements from a protein production outcome set (Wang et al. 2014).

Assay: label from the status in PepcDB records

Sequence | protein production
MSPIVTAILVASNLGLIFLLMTVPLGLRTVRVSRVIAMDRGRLWQALWPLGSDAGWSGEILSAEPLDGEGVSRIMLSWEGRDGEPIERRARFDDVVEGSRFSMRVLEDTALDASFWKDYRETAELVSEGSGTRVTLGRTDRYRGVAFLVFRYFAMRRELSKLQRWAMTGQYRKGGWFEHPLSQVGFAVLSALILWPFFGLHLGGLALAAILTSVVALHELGHMAAFRLMGHRKARMIFIPLLGGIAIGGRPYNSRFEVAFVALMGAGFSAFLVPIAIAASAFAGSEGHKAAAALLAALAGCAALFNIANLVPVWKFDGGQVLRQICPGPVALALASFFLLSAFLAVGWEAGFSSGFLLATGAVFSILSLLTMGSGVKPRYELKPIRTVDRFAIAGALLAVFVIHGCGVLWASAQLL | failed
MSPKTTKKIAILTSGGDAPGMNATLVYLTRYATSSEIEVFFVKNGYYGLYHDELVPAHQLDLSNSLFSAGTVIGSKRFVEFKELKVREQAAQNLKKRQIDYLVVIGGDGSYMGAKLLSELGVNCYCLPGTIDNDINSSEFTIGFLTALESIKVNVQAVYHTTKSHERVAIVEVMGRHCGDLAIFGALATNADFVVTPSNKMDLKQLESAVKKILQHQNHCVVIVSENIYGFDGYPSLTAIKQHFDANNMKCNLVSLGHTQRGFAPTSLELVQISLMAQHTINLIGQNKVNQVIGNKANVPVNYDFDQAFNMPPVDRSALIAVINKNII | failed
MSPLILMITAGAGIALLLFLVLKYKFQPFVALMLVSILVALVAGVKPAELVATIEGGMGKTLGHIAIIIALGAMIGRIIELSGGAEALAKTLIERFGNRRTPLALTMAGFIIGVPVFFEVGVIILMPLAYGVARSARKPLLVFALPMCAALLTVHAFLPPHPGAVAAASQLGADLGRVLMFGLPLTALLCYVGYRVAGRMTRRNYPMTDDIRAEVYGPHVTNEDLAAWNNGSEQPASPQAVAAVAHMGLEESTGSLAAKLPPAPPPGFGLIVSLILLPIVLILLGTLATSLLPLESTLRGVLTVLGAPLVALLLDTLLCAWLLGSRRGWSRSQVSDVIGSALPGVAMVILIAGAGGVFGKVLVDTGIGAVVSDLLRTTGLPVLALGFLLTMLLRAVQGSTTVALVTTAGIIAPLIATLNLSPNHMALLCLAMGGGGLAMSHINDAGYWIFTKLAGLNVADGLRTWTVITTLLGTLGFCITLLIWPFV | failed
MSPMRIGLVCIRGSVPAFENFGFLPTDIVGSNGLVNGSRAHRVLDGIIIPGGSIVESGSLSPELAFEIRRMASDGKFVLGICSGFQALAERTDIGRKSPCPVYREGLGLLNVTFHPMISNDRVEATITGESFLTSGMSGERITGFHCHTYGEIRGDAPEIMKSRIVRADYHERPGEILSGVCSDDGNVAGTMVHGCLDENQTLVSNILKFLDADETARERILEANRKLREALRSELGISTGIRVMDRGGTRGTPPAIMIASTGSDSGKTFILTGLAGALRRRGLRVGVIKVGPDVRDIVPALYLIKEPMEEHSSIRIGRLGWMELRDVLESVRGRYDIILIEGVMSILTGLLNDITPYSGAEIALAAGIPLIMVAGCSKGGIESAVVDLDAHISVLEGLGLEVSCGILNRVYDMDIFERASGGRYLAIPRVEMSERGGTPEVEIKLEDFCLKAMETVEEHLDVDTLISFAKKPEFRGYMGPEEIKKVFSPLEHHHHHH | failed
MSPQSMLTSPQHPRRTTMVISHGTLSASAEHAAHLRQLLVHIAQATRQEDGCLLYLVSEDLSQPGHFLITEHWDNLGAMHTHLALPGVTQAIDALKHLNVTDLKITAYEAGEAINIMG | not failed
MSPRDVLDSIFAFPPNRDTLGGTSYLIVGNEGNILIDCPALDQTNLNFLRSHGGVRWLFLTHRGAIGRTAEIQQNYGCDILIQEQEAYLLPGLTVTTFTQEFAVTPTAKAIWTPGHSPGSSCLYYNHQGGVLFSGRHLLPNQKGEPVPLRTAKTFHWPRQIKSLQTILETLTPETLQYICPGANTGFLRGKRSIDTAYQRLASLDLKALLQTQPLILEHHHHHH | not failed
MSPTRAQRLEGLERIAYCSDVKLFFLVSGSRMFLLLLMLFLRVALPHIYGTELLWDSGTLLYDDMNSTWSLLNFPRSWDGVHFFHVAKHGYSHENVCAFFPLVPFIVRTVSWLNDVLLPEFLTAVPVTFQVALLNVAMGGAAAVCLRRITILTLLSGSHGVDYTNKKDKAMSMTSGTWLDSLPLPPPYYRHEVTVKEHLNARLWKEVGATVLMWMLSPTAVFSVVLYTESVFSFATFLGVYMLIVSPQGKWRTAAAEAGAVLCFAVAGCARSNATTYIGFVLYPVFLQVFFFDTYRKRYAKRYGVTSPIRRWPSLARCVIVLIEVVIIITPYLGLNYLCYSRFVPLWDDMSRAAIGGRFWAFYGWMQKRYWNVGFLQSYRWGNAPNVLISAPIMFFTVRGFVLFIVQPALARSMETESNISKEYQEPRSDCREDRCGNKKQRLFSIYKLMENLVQSSNIICLLVILAFGATMAHVNVVNRLVMSSPALYWLWGRQFVCDPWGGNTVVMVRIFLLWNCIGALFVPNGLPWT | failed
MSQALPYRPDIDTLRAAAVLSVIVFHIEKDWLPGGFLGVDIFFVISGFLMTTILHREMSGGGGRFSLKAFYIRRIKRILPAFFAVLAATLAGGFFLFTKDDFFLLWKSALTALGFASNLYFARGKDYFDPAQEEKPLLHIWSLSVEEQFYFVFPILLLLVARKSLRVQFGFLAALCALSLAASFIPSALDKYYLPHLRACELLIGSLTAVWMRCRQPAVGRRCAAVGALFAVCILSTCLFSYSEQTAYFPGPAALIPCLAVAALIYFNHYEHPLKKFFQSKITVAAGLISYSLYLWHWPILAFMRYIGPDNLPPYSPAAAVVLILLLSLFSYHCIEKPFKKWQGSFAQSVLWIYALPMLILGAGSFFAMRLPFMAQYDRLGLTRSNTSCHNNTGKQCLWGDTEKQPELLVLGDSHADHYKTFFDAVGKKEKWSATMVSADACAYVEGYASRVFQNWAACRAVYRYAEEHLPRYSKVVLAMRWGSQMPENSRSLAYDAGFFQKFDRMLHKLSSEKQAVYLMADNLASSYNVQRAYILSSRIPGYRQALRPDDESTLKANARIRELAAKYPNVYIIDAAAYIPADFQIGGLPVYSDKDHINPYGGTELAKRFSEKQRFLDTRHNH | failed
MSQDGGQGRYAGRALAGGRYQLRDLLGEGGMASVHLAYDSVLDRQVAIKTLHTELGREQAFRERFRREAQAVAKLTHTNIVSVFDTGEDDLDGMTTPYIVMEYVEGRPLGSVLDEDVRQQGAMPADKALKITADVLAALEISHEMGLVHRDIKPGNVMMTKRGVVKVMDFGIARAMQSGVTSMTQTGMVVGTPQYLSPEQALGRGVDARSDLYSVGIMLFQLVTGRLPFDADSPLAIAYAHVQEQPVAPSAVNRALPPAVDALVARALKKNPNERFPSAEAMRDECLRVAASFQAAPPSIVPGAQTSSGAGVGSAVFPPVGQGTPAPTGPVQTPYQPTPSPGPNPYGTPAPAAHSPAYGYPQQAGYQTPAPAPYAQQQAAATPPPYNLTPSAQGSGSGSPGGKSNKPVIIGSIVVAVVAVGGLIGALLMNGGGDEDPEAGGGGSSTASVSASPSKAAGYRGPDKEKTIEKDKCTEPQESYNDPDKIQVPDFTFKYIGSVKECFNAAGWQMKVVEVDENTYGEGSVRDQFPTAGTDVDPENMPEIQLKVSTGNPPSE | failed
MSQDVSAQLQFRRSTMHWLRVARTAALALLLAPAVAPARAWLPPPGHVQMPLWPTVVPDALPHPRPESVGTGEGKRPWTKVGDVSRPTITFYAPKGQNTGAAAVVFPGGGYQVLAMDLEGTDICDWLSGRGITCVLLKYRVPNSGPTWTNGGRYYPKVQTALQDAQRALGLVRQHADDWGVDPHRVGVIGFSAGGHLVAAMSTHFTRRTYPSVDAADAQSCRPDFAIAVYPGHLWAHEDEDRAKRDPTHLPLRPDITVTADTPPTFLLQAEDDEVDGVSQSLAYYVALKQAGVPAEMHLYAEGGHAFGLRAGKLPIAQWPHLVETWLGTIGMLGTASAP | failed
MSQFTPHFTYRNVALALLVSTVLNGCATKGFRDADDQAERDIRTAEQLHGLSLKQPSSPSLVWVDEPWVNPRPIRVSARAQQVKLPPCSLTLIIDGSLSLYEVGQRITRSCGFPVVITPDAMSALSGSASQGGVGATRAIQGALPRPDEGGRPALGSIGGVTSTQSFSPNIGAGLITDISWEGEPLGGALDQITSRLGLNWKFENNQVVLYYLDTRTYRLKVLNAETAMNSNLTGTSSSTAGGDSSSVSGSQNSGQSTSVKLESKIHNDIGQSIKSMVSSSGSWHLSGSTGELVVTDVPQVLDRVESYIDSLNVRMNRMVKLMVSVYSVQRKGSSQTSLDWSVVGKRLDRFGLTLAGTPTATTAVSSAGINVVDGKFAGTTALFRALETQGKVSVVMAHEATTTNLVPAPFQIAGQMVYLRSQKTSVSENYATTDMEPGSITTGTQMTLLPDIRDEGDIQLQFNFSHSDPAQLRKESSKDGNTKMEMPYTTVRSLSERVNLKPGQTLIVSGYNSRNLTASREGAFDPDVTVAGGGKSSETDDVTLIIAVTPVLM | failed
MSQILTITFPIYAALAVGFLVVRQGWFSSADMRVLGRYVMDIALPALLFNAVASRDVAEVFHPGYMLAFAAAGLATVALSYLWFTLTGTEARRRAVAVMGSSCPNSGFVGYPVMLLTFPDLAGVILALNMLVENVLIIPACLILTDMARGRGQGGIGQRIAGILWGVLKRPMVIGLLLGLAVSLAGVPVPQTVTRLMQMLAASASALALVVIGGSLAGLSWKGSRWHAVQISALKLLLHPALALLAVILVAAIGLPLDPDMGTALILSAAMPMFGIYAVLAQELGHEGMASIALLTATTLAFFTLSGLLWWLT | failed
MSQKQEEENPAEETGEEKQDTQEKEGILPERAEEAKLKAKYPSLGQKPGGSDFLMKRLQKGQKYFDSGDYNMAKAKMKNKQLPSAGPDKNLVTGDHIPTPQDLPQRKSSLVTSKLAGGQVE | failed
MSQQKHADQDYALETVPSESKKGFLPMFAIMLGFTFFSASMWAGGTIGTGLKFQTFLLAVLMGNLLLGLYTGALAYIGSSTGLSTHLLARYSFGEKGSYLASFILAITQVGWFGVGVAMFSLPVHYATGIDLNILLLLSGILMTTTAYFGIKSLTVLSMISVPAITLLGIYSVTGAVNSIGGISELFAIEPANNLGLAVGLSLCIGSFISGGTLTPDFSRFSKSKSIGVISTFIAFFIGNSLMFIFGAVGASTLGQSDISEVMLKQGLIIPAIIILGLNIWTTNDNALYASGLGFSNITKIPKKHVVIFNGLIGTLGALVLYNNFVGWLTLLSSIIPSIGGIIISDYFINKRQKYASLENIKVKKVHWNAVIAWVLGVFASQFLPGISPINAVFGSAIIYIVLETLKKNNI | failed
MSQQNTELEGIGKLRSGSLFMILAVLLAAIGILVIISAGMLGGMFSAASGNVSGVIASGIGLLVGIAIVILIGAIIGLIGILRIRSGFGILKSLGRDVGIGEIGTTLYLVGLIIIIIGALLTIVLIGFPILILGEIIALIGGILIGIGFYKVGEIYNEGLVKIGGILIVIPIDLINFVGFILAYVGLGKVRPLPTVAQQPLVPQVYQVGQGTIRNNGYAYITLYSSTPASIISAKIEGANIMSSAINPTVLQIGNNEVTIFFGNVQSLAPNTTYIITLTINIGGNIINISTTAVYQP | failed
MSQTEPPEDLMQYEAMAQDALRGVVKAALKKAAAPGGLPEPHHLYITFKTKAAGVSGPQDLLSKYPDEMTIVLQHQYWDLAPGETFFSVTLKFGGQPKRLSVPYAALTRFYDPSVQFALQFSAPEIIEDEPEPDPEPEDKANQGASGDEGPKIVSLDQFRKKLEHHHHHH | not failed
MSQTKIEWADKVWNPVSGCTKISEGCQNCYAERMSKRLAGRCGYPAEEPFKVTPHPEKLGEPLKWRKPLRIFVNSMSDLFHADVPDKFIINVLSMIAEASHHTFLILTKRPERMRELLNHDTIANDVWLQTSRGVNAERSPWPLPNLWLGVSAENQAAADERIPILLQTPAAVRFVSVEPMLSEVNLSRYLKRPICKHWGRNGDPNIYGRYFWGKQALVGAGWVGIDWVICGGETGPGARPMHPVWVRDLRDQCRVAGTPFFFKSFGEYVRVGECMNEEDDEEFYSKSSAAGTNVQRLNLQGGMGYHGPKSIYMQRIGKKRAGRELDGRTWEEFPLEHHHHHH | failed
